This is an account of results in patent publication US10941208B2, “Anti-MUC16 antibodies” (Regeneron Pharmaceuticals, Inc., priority 2016, dated 2021).

Substitutions are numbered along the chain they refer to.

The target in assay [1] is T1, soluble monomeric human MUC16 (hMUC16.mmh, last five SEA domains, SEQ ID: 1902) (Homo sapiens, UniProt Q8WXI7).
T1 construct: mmh (myc-myc-hexahistidine)
As to the kind of experiment: Surface plasmon resonance (BIACORE) binding to hMUC16 fragment at 25° C. The note with it: for KD / ka / kd / t 1/2: 25° C.; for binding to soluble truncated human MUC16 protein via surface plasmon resonance (in words): truncated format encompassing the last five SEA domains. Also noted: key to ka / kd / KD / t 1/2: NB: No binding. Here is the method: Antibodies were captured onto a CM4 or CM5 BIACORE sensor surface (GE Healthcare Life Sciences) derivatized via amine coupling with a monoclonal anti-human Fc antibody (GE, # BR-1008-39) or a monoclonal goat anti-mouse Fc antibody (GE, # BR-1008-38). Various concentrations of soluble monomeric human MUC16, in a truncated format encompassing the last five SEA domains of Mucin-16 (hMUC16.mmh, or MUC16 “nub”, SEQ ID: 1902) were injected over the anti-MUC16-antibody captured surface at a flow rate of 50 uL/minute (BIACORE T 200) or 30 uL/minute (BIACORE 4000). Antibody-reagent association was monitored for 4 min and the dissociation was monitored for 6-10 min. All binding studies were performed in HBS-ET buffer (0.01M HEPES pH 7.4, 0.15M NaCl, 0.05% v/v Surfactant P20).
Kinetic association (ka) and dissociation (kd) rate constants were determined by fitting the real-time sensorgrams to a 1:1 binding model using Scrubber 2.0c curve fitting software. Binding dissociation equilibrium constants (KD) and dissociative half-lives (t½) were calculated from the kinetic rate constants as: […]
A general note: Surface plasmon resonance follows binding to a sensor surface in real time, without labels.

Assay [2] deals with T2, hMUC16 endogenously expressed on OVCAR-3 cell line (Homo sapiens, UniProt Q8WXI7).
T2 construct: OVCAR-3 cells endogenously express MUC-16; endogenous in cells; host or cells: OVCAR-3 (also luciferase-transduced OVCAR3-Luc)
In words: Electrochemiluminescence (MSD) cell binding, OVCAR-3 vs SK-OV-3. The note with it: cell-based binding assay. Here is the method: The ability of anti-MUC16 antibodies to bind specifically to endogenously expressing MUC16 on the human ovarian carcinoma cell line (OVCAR-3) was evaluated via an electrochemiluminescence based detection assay (Meso Scale Discovery (MSD), Rockville, Md.). […] Detached cells were then washed once in 1×PBS supplemented with Ca^2+/Mg^2+ and counted (Cellometer Auto T4 cell counter, Nexcelom Bioscience, Lawrence, Mass.). Approximately 1.0×10^4 cells were plated in MULTI-ARRAY 96-well carbon electrode plates (MSD) and incubated for 1 h at 37° C. […] Next, serial dilutions of anti-MUC16 or control antibodies (0.85 pM-50 nM) and no-antibody buffer controls were added to the plate-bound cells and incubated for 1 h at room temperature (RT). […] Plate-bound antibodies were detected with a SULFO-TAG™-conjugated anti-human kappa light chain antibody (Regeneron) or a SULFO-TAG™-conjugated anti-mouse IgG antibody (Jackson Immunoresearch, West Grove, Pa.) for 1 h at RT. Post-wash, plates were developed with Read Buffer (MSD) according to manufacturer's protocol and luminescent signals were recorded with a SECTOR Imager 6000 (MSD) instrument.
Luminescence intensity, measured in relative light units (RLU), for the two cell lines was recorded to indicate the binding intensity of each antibody.

Setting [3] is: Hybridoma anti-MUC16 antibodies (H1M, H2M, H3M), Table 5A.
The mark [4] stands for this setting: Human Fc anti-MUC16 antibodies (H1H), Table 5B.

T1 sequence (Q8WXI7 with tags, fused parts or gaps): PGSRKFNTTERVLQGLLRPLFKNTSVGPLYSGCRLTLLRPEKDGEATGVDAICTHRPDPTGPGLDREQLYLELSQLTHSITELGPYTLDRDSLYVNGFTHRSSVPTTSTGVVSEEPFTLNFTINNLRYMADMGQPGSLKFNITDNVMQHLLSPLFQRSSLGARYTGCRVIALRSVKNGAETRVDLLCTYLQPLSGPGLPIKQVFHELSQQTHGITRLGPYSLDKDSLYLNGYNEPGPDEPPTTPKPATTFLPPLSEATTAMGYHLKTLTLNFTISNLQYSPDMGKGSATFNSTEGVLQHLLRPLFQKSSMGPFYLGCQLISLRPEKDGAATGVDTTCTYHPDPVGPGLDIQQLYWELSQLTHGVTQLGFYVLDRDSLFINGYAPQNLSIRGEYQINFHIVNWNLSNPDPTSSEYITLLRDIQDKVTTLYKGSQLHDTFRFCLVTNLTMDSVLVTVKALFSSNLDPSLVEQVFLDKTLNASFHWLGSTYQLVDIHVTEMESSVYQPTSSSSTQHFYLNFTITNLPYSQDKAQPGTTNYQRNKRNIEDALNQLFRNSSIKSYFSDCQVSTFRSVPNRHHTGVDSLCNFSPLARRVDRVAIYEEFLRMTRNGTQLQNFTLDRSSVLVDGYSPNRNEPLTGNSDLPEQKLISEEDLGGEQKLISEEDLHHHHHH

B1: H3M9529N: anti-MUC16 hybridoma antibody, mIgG3; HCVR/LCVR SEQ ID NOs: 378/386 (antibody, V domains shown)
VH: QVQLQQWGAGLLKPSETLSLTCAVYGGSFSGFYWSWIRQPPGKGLEWIGEINHSGSAKYNPSLKNRVIISIDTSKNQFSLKLDSVTAADTAVYNCARQGWNFAIFDYWGQGTLVDVSS
VL: DIVMTQSPDSLAVSLGGRATINCKSSQSVLHSSYNKDHLAWYQQRPGQPPKLLIYWASTRESGVPDRFSGSGSGTDFTLTISSLQAEDVAVYYCQQYNILPPTFGQGTRVEIK
As to B1, in assay [1] (setting [3]), the KD entry is given as “NB”, the ka entry is “NB”, the kd entry is “NB” and the “t 1/2” value is “NB”. Also, the “binding to soluble truncated human MUC16 protein via surface plasmon resonance (in words)” value in assay [1] is recorded as “no binding”. Moreover, in assay [2], the “specific binding to endogenous human MUC16 expressed on OVCAR-3 cells (in words)” value was “specific binding”.

B2: H1H8755P: anti-MUC16 antibody, human IgG1 Fc; HCVR/LCVR SEQ ID NOs: 2/10 (antibody, V domains shown)
VH: EVQLVESGGGLVQPGRSLRLSCAASGFTFNDYAMHWVRQSPGKGLEWVSGIDWNGGSIDYADSVKGRFTISRDTAKNSLYLQMNSLKVEDTALYYCAKDIGHWNYIGGMDVWGQGTTVTVSS
VL: DIQMTQSPSSLSASVGDRVTITCRASQSINIYLNWYQQKPGKAPKFLIYAASSLQTGVPSRFSGSGSGTDFTLTISSLEPEDFATYYCQHSYSTPPITFGQGTRLEIK
In assay [1] (setting [4]), B2 came in with a ka of 522000 M⁻¹ s⁻¹ and a kd of 0.000149 s⁻¹.

B3: H2M7135N: anti-MUC16 hybridoma antibody, mIgG2; HCVR/LCVR SEQ ID NOs: 298/306 (antibody, V domains shown)
VH: EVQLVESGGGLVQAGGSLRLSCAASGFTFSYHEMNWVRQAPGKGLEWVSYIGSRGTTKHYADPVKGRFTISRDNAKNSLYLQMNSLRAEDTAVYYCASEVGSILGYSMDVWGQGTTVTVSS
VL: DIQMTQSPSSLSASVGDRVTITCRASQSVSRYLNWCQQKPGKAPKLLTYAASSLQSGVPSRFSGSGSGTDFTLTISSLQPEDFAAYFCQQSYSTPPITFGQGTRLEIK
In assay [1] (setting [3]), B3 returned a ka of 51000 M⁻¹ s⁻¹ and a kd of 0.000218 s⁻¹.

B4: H1H8770P: anti-MUC16 antibody, human IgG1 Fc; HCVR/LCVR SEQ ID NOs: 34/42 (antibody, V domains shown)
VH: QVQLVESGGGVVQPGRSLRLSCAASGFTFSDHGMHWVRQAPGKGLEWVAVISYHGSNKHYADSVKGRFTISRDNSKNALYLQMNSLRPEDTAMYYCAKDGYDFWNGYSLFDYWGQGTLVTVSS
VL: B2 VL with N30S, I31N, F46L, A50T, S53N, Q55L, T56S, E79Q, H90Q, R104K
Turning to B4, in assay [1] (setting [4]), the ka worked out at 247000 M⁻¹ s⁻¹ and the kd is 0.000308 s⁻¹.

B5: H1H8783P: anti-MUC16 antibody, human IgG1 Fc; HCVR/LCVR SEQ ID NOs: 50/58 (antibody, V domains shown)
VH: B4 VH with G33A, S56T, N57D, H59Q, A61G, G106A
VL: B2 VL with N30S, I31N, F46L, A50T, Q55L, T56S, E79Q, H90Q
In assay [1] (setting [4]), B5 displayed a ka of 174000 M⁻¹ s⁻¹ and a kd of 0.000107 s⁻¹.

B6: H1H8808P: anti-MUC16 antibody, human IgG1 Fc; HCVR/LCVR SEQ ID NOs: 130/138 (antibody, V domains shown)
VH: QVQLVESGGGVVQPGRSLRLSCVASGFTFSNYGIHWVRQAPGKGLEWVAVISDDGSFKFYADSVKGRFTISRDNSKNTLYLQMNSLRVEDSAVYHCAKWQHNWNDGGFDYWGQGTLVTVSS
VL: EIVLTQSPDTLSLSPGERATLSCRASQSLSSNYLAWYRQKPGQAPRLLIYGISSRATGIPDRFSGSGSGTDFTLTISRLEPEDFAVYYCQQYGSSPWTFGQGTKVEIK
In assay [1] (setting [4]), B6 had a ka of 4120 M⁻¹ s⁻¹ and a kd of 0.000216 s⁻¹.

B7: H1M9528N: anti-MUC16 hybridoma antibody, mIgG1; HCVR/LCVR SEQ ID NOs: 234/242 (antibody, V domains shown)
VH: QMQLQESGPGLVKPSETLSLTCTVSGGSISSYYWNWIRQPPGKGLEWIGYIYYSGNNFNPSLKSRVTISVDTSKNQFSLKLSSVTAADTAVYYCARAFHWNYEFDYWGQGTLVTVSS
VL: EIVLTQSPGTLSLSPGERATLSCRASQSVSNNYLAWYQQKPGQAPRLLLYGASSRTTDIPDRFSGSGSGTDFTLTISRLEPEDFAVYYCQQYDNSPLTFGGGTKVEIR
As for B7, in assay [1] (setting [3]), the KD result was “NB”, the ka result is on record as “NB”, the kd result is reported as “NB” and the “t 1/2” value is “NB”. Further, the “binding to soluble truncated human MUC16 protein via surface plasmon resonance (in words)” value in assay [1] is on record as “no binding”. Besides, in assay [2], the “specific binding to endogenous human MUC16 expressed on OVCAR-3 cells (in words)” value was “specific binding”.
